Measured values reported in US20190169692.

Target: YB-1 protein, P67809
Sequence (P67809 whole entry, looked up): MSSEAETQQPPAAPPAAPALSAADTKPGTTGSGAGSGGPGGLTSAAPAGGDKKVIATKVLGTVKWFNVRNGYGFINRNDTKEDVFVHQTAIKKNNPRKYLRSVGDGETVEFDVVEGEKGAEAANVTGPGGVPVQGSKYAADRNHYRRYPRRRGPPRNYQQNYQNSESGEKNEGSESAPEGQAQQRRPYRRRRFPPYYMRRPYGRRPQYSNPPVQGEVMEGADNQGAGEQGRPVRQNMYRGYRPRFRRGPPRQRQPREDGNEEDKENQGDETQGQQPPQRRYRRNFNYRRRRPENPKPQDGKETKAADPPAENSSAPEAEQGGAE

B1: serine threonine kinase 32C (STK32C) (protein)
chain: MRSGAERRGSSAAASPGSPPPGRARPAGSDAPSALPPPAAGQPRARDSGDVRSQPRPLFQWSKWKKRMGSSMSAATARRPVFDDKEDVNFDHFQILRAIGKGSFGKVCIVQKRDTEKMYAMKYMNKQQCIERDEVRNVFRELEILQEIEHVFLVNLWYSFQDEEDMFMVVDLLLGGDLRYHLQQNVQFSEDTVRLYICEMALALDYLRGQHIIHRDVKPDNILLDERGHAHLTDFNIATIIKDGERATALAGTKPYMAPEIFHSFVNGGTGYSFEVDWWSVGVMAYELLRGWRPYDIHSSNAVESLVQLFSTVSVQYVPTWSKEMVALLRKLLTVNPEHRLSSLQDVQAAPALAGVLWDHLSEKRVEPGFVPNKGRLHCDPTFELEEMILESRPLHKKKKRLAKNKSRDNSRDSSQSENDYLQDCLDAIQQDFVIFNREKLKRSQDLPREPLPAPESRDAAEPVEDEAERSALPMCGPICPSAGSG
in vitro kinase assay with P32-labeled ATP (YB-1 with serine 165 / serine 167 mutated to alanine as substrate, STK32C as enzyme source): it was confirmed that the serine 167 of the YB-1 substrate protein was phosphorylated by SKT32C
